Laboratory results published in paper PMC12429969.

Tests used:
[1] = molecular target: cell surface IgG (sIgG) of the sIgG+ B-cell line SU-DHL-4 (human (endogenous in SU-DHL-4))
[2] = molecular target: cell surface IgG (sIgG) of the sIgG+ B-cell line SU-DHL-4 (human (endogenous in SU-DHL-4)); remark: listed apart in the source

Substance: IgAimG (SpA toxin 2): diphtheria toxin without its receptor binding domain, GGGS linker, SpA ZZ domain
- viability of SU-DHL-4 after 3 days with 10 to 100 μg/ml IgAimG in the presence of human serum (luminescent cell viability assay) (% of cells killed) [1]: > 99
- viability of the sIgG+ B-cell line SU-DHL-4 after 3 days with the toxin (luminescent cell viability assay); toxic from 0.0001 μg/ml (% of cells killed) [2]: 99
